In experiment [1] the target is T1, CRF1R receptor (UniProt P34998 24-415, limits assumed).
T1 sequence (looked up): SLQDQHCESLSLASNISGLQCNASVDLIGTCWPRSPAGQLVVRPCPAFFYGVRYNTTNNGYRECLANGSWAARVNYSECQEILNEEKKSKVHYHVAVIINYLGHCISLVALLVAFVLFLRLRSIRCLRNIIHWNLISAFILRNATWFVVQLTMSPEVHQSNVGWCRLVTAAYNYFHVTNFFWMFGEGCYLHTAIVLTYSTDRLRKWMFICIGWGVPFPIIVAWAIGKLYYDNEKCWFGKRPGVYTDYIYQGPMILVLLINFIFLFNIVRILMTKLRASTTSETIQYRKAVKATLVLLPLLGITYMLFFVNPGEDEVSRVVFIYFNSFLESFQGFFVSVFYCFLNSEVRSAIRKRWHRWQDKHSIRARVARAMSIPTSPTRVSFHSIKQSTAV
As to the kind of experiment: cell-based or functional assay.

Experiment [2] has as its target human corticotropin-releasing factor 2a (CRF2a receptor) (human), Q13324. As to the kind of experiment: cell-based or functional assay.

*1 amine or outer side, *2 acyl side, *3 side chain or, on linkers, in order; H or OH if unused. Where no end group is shown, it is not given here. Side-chain parts run from the residue outwards. [ ]: non-standard residue; d: D form. The star is where a group is joined. C18 diacid = O=C(O)CCCCCCCCCCCCCCCCC(=O)*; C16 diacid = O=C(O)CCCCCCCCCCCCCCC(=O)*; γGlu = O=C(O)[C@H](CCC(=O)[*:2])N[*:1]; αMeL = CC(C)C[C@](C)(N)C(=O)O; AEEA = NCCOCCOCC(=O)O; Aib = CC(C)(N)C(=O)O

human corticotropin-releasing factor 2a (CRF2a receptor) (human), Q13324, sequence (Q13324 20-411): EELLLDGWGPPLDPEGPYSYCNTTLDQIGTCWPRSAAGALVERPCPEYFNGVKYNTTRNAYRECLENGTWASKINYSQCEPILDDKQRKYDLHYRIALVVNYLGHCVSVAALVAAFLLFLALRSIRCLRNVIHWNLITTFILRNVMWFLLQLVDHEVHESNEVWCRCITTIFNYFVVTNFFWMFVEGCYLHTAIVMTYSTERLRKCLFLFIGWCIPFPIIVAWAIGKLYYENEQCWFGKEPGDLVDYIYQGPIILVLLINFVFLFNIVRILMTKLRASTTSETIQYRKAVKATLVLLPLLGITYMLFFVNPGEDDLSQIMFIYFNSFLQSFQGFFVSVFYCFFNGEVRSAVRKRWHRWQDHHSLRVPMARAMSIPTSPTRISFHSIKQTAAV

B1: SEQ ID NO 40 (peptide)
peptide: Ac-IVLSLD[dV]PIKLK([γGlu-C16 diacid])KILLEQEKQKKQREQAETN[Aib]QILAQV-NH2
SMILES: CC[C@H](C)[C@H](NC(C)=O)C(=O)N[C@H](C(=O)N[C@@H](CC(C)C)C(=O)N[C@@H](CO)C(=O)N[C@@H](CC(C)C)C(=O)N[C@@H](CC(=O)O)C(=O)N[C@@H](C(=O)N1CCC[C@H]1C(=O)N[C@H](C(=O)N[C@@H](CCCCN)C(=O)N[C@@H](CC(C)C)C(=O)N[C@@H](CCCCNC(=O)CC[C@H](NC(=O)CCCCCCCCCCCCCCC(=O)O)C(=O)O)C(=O)N[C@@H](CCCCN)C(=O)N[C@H](C(=O)N[C@@H](CC(C)C)C(=O)N[C@@H](CC(C)C)C(=O)N[C@@H](CCC(=O)O)C(=O)N[C@@H](CCC(N)=O)C(=O)N[C@@H](CCC(=O)O)C(=O)N[C@@H](CCCCN)C(=O)N[C@@H](CCC(N)=O)C(=O)N[C@@H](CCCCN)C(=O)N[C@@H](CCCCN)C(=O)N[C@@H](CCC(N)=O)C(=O)N[C@@H](CCCNC(=N)N)C(=O)N[C@@H](CCC(=O)O)C(=O)N[C@@H](CCC(N)=O)C(=O)N[C@@H](C)C(=O)N[C@@H](CCC(=O)O)C(=O)N[C@H](C(=O)N[C@@H](CC(N)=O)C(=O)NC(C)(C)C(=O)N[C@@H](CCC(N)=O)C(=O)N[C@H](C(=O)N[C@@H](CC(C)C)C(=O)N[C@@H](C)C(=O)N[C@@H](CCC(N)=O)C(=O)N[C@H](C(N)=O)C(C)C)[C@@H](C)CC)[C@@H](C)O)[C@@H](C)CC)[C@@H](C)CC)C(C)C)C(C)C
B1: the “Emax (% I)” value in experiment [1] worked out at 0%. Moreover, the EC50 [nM] (cAMP) in experiment [2] was 0.25 nM.

B2: SEQ ID NO 102 (peptide)
peptide: Ac-IVLSLDVPIKLK([AEEA-AEEA-γGlu-C18 diacid])KILLEQEKQKKQREQAETNVQILAQV-NH2
SMILES: CC[C@H](C)[C@H](NC(C)=O)C(=O)N[C@H](C(=O)N[C@@H](CC(C)C)C(=O)N[C@@H](CO)C(=O)N[C@@H](CC(C)C)C(=O)N[C@@H](CC(=O)O)C(=O)N[C@H](C(=O)N1CCC[C@H]1C(=O)N[C@H](C(=O)N[C@@H](CCCCN)C(=O)N[C@@H](CC(C)C)C(=O)N[C@@H](CCCCNC(=O)COCCOCCNC(=O)COCCOCCNC(=O)CC[C@H](NC(=O)CCCCCCCCCCCCCCCCC(=O)O)C(=O)O)C(=O)N[C@@H](CCCCN)C(=O)N[C@H](C(=O)N[C@@H](CC(C)C)C(=O)N[C@@H](CC(C)C)C(=O)N[C@@H](CCC(=O)O)C(=O)N[C@@H](CCC(N)=O)C(=O)N[C@@H](CCC(=O)O)C(=O)N[C@@H](CCCCN)C(=O)N[C@@H](CCC(N)=O)C(=O)N[C@@H](CCCCN)C(=O)N[C@@H](CCCCN)C(=O)N[C@@H](CCC(N)=O)C(=O)N[C@@H](CCCNC(=N)N)C(=O)N[C@@H](CCC(=O)O)C(=O)N[C@@H](CCC(N)=O)C(=O)N[C@@H](C)C(=O)N[C@@H](CCC(=O)O)C(=O)N[C@H](C(=O)N[C@@H](CC(N)=O)C(=O)N[C@H](C(=O)N[C@@H](CCC(N)=O)C(=O)N[C@H](C(=O)N[C@@H](CC(C)C)C(=O)N[C@@H](C)C(=O)N[C@@H](CCC(N)=O)C(=O)N[C@H](C(N)=O)C(C)C)[C@@H](C)CC)C(C)C)[C@@H](C)O)[C@@H](C)CC)[C@@H](C)CC)C(C)C)C(C)C
As to B2, the “Emax (% I)” value in experiment [1] is -5%. Also, in experiment [2], the EC50 [nM] (cAMP) was 17.6 nM.

B3: SEQ ID NO 39 (peptide)
peptide: Ac-IVLSLDVPIKLK([γGlu-C16 diacid])KILLEQEKQKKQREQAETN[Aib]QILAQV-NH2
SMILES: CC[C@H](C)[C@H](NC(C)=O)C(=O)N[C@H](C(=O)N[C@@H](CC(C)C)C(=O)N[C@@H](CO)C(=O)N[C@@H](CC(C)C)C(=O)N[C@@H](CC(=O)O)C(=O)N[C@H](C(=O)N1CCC[C@H]1C(=O)N[C@H](C(=O)N[C@@H](CCCCN)C(=O)N[C@@H](CC(C)C)C(=O)N[C@@H](CCCCNC(=O)CC[C@H](NC(=O)CCCCCCCCCCCCCCC(=O)O)C(=O)O)C(=O)N[C@@H](CCCCN)C(=O)N[C@H](C(=O)N[C@@H](CC(C)C)C(=O)N[C@@H](CC(C)C)C(=O)N[C@@H](CCC(=O)O)C(=O)N[C@@H](CCC(N)=O)C(=O)N[C@@H](CCC(=O)O)C(=O)N[C@@H](CCCCN)C(=O)N[C@@H](CCC(N)=O)C(=O)N[C@@H](CCCCN)C(=O)N[C@@H](CCCCN)C(=O)N[C@@H](CCC(N)=O)C(=O)N[C@@H](CCCNC(=N)N)C(=O)N[C@@H](CCC(=O)O)C(=O)N[C@@H](CCC(N)=O)C(=O)N[C@@H](C)C(=O)N[C@@H](CCC(=O)O)C(=O)N[C@H](C(=O)N[C@@H](CC(N)=O)C(=O)NC(C)(C)C(=O)N[C@@H](CCC(N)=O)C(=O)N[C@H](C(=O)N[C@@H](CC(C)C)C(=O)N[C@@H](C)C(=O)N[C@@H](CCC(N)=O)C(=O)N[C@H](C(N)=O)C(C)C)[C@@H](C)CC)[C@@H](C)O)[C@@H](C)CC)[C@@H](C)CC)C(C)C)C(C)C
In the case of B3, the “Emax (% I)” value in experiment [1] came out at 2%. In addition, the EC50 [nM] (cAMP) in experiment [2] was determined as 0.53 nM.

B4: SEQ ID NO 49 (peptide)
peptide: Ac-IVLSLDVPIK[αMeL]K([γGlu-C16 diacid])KILLEQEKQKKQREQAETNVQILAQV-NH2
As to B4, in experiment [1], the “Emax (% I)” value is -3%. Also, the EC50 [nM] (cAMP) in experiment [2] came to 0.92 nM.

B5: SEQ ID NO 43 (peptide)
peptide: Ac-IVLSLDVPIK[αMeL]K([γGlu-C16 diacid])KILLEQEKQKKQREQAETN[Aib]QILAQV-NH2
SMILES: CC[C@H](C)[C@H](NC(C)=O)C(=O)N[C@H](C(=O)N[C@@H](CC(C)C)C(=O)N[C@@H](CO)C(=O)N[C@@H](CC(C)C)C(=O)N[C@@H](CC(=O)O)C(=O)N[C@H](C(=O)N1CCC[C@H]1C(=O)N[C@H](C(=O)N[C@@H](CCCCN)C(=O)N[C@@](C)(CC(C)C)C(=O)N[C@@H](CCCCNC(=O)CC[C@H](NC(=O)CCCCCCCCCCCCCCC(=O)O)C(=O)O)C(=O)N[C@@H](CCCCN)C(=O)N[C@H](C(=O)N[C@@H](CC(C)C)C(=O)N[C@@H](CC(C)C)C(=O)N[C@@H](CCC(=O)O)C(=O)N[C@@H](CCC(N)=O)C(=O)N[C@@H](CCC(=O)O)C(=O)N[C@@H](CCCCN)C(=O)N[C@@H](CCC(N)=O)C(=O)N[C@@H](CCCCN)C(=O)N[C@@H](CCCCN)C(=O)N[C@@H](CCC(N)=O)C(=O)N[C@@H](CCCNC(=N)N)C(=O)N[C@@H](CCC(=O)O)C(=O)N[C@@H](CCC(N)=O)C(=O)N[C@@H](C)C(=O)N[C@@H](CCC(=O)O)C(=O)N[C@H](C(=O)N[C@@H](CC(N)=O)C(=O)NC(C)(C)C(=O)N[C@@H](CCC(N)=O)C(=O)N[C@H](C(=O)N[C@@H](CC(C)C)C(=O)N[C@@H](C)C(=O)N[C@@H](CCC(N)=O)C(=O)N[C@H](C(N)=O)C(C)C)[C@@H](C)CC)[C@@H](C)O)[C@@H](C)CC)[C@@H](C)CC)C(C)C)C(C)C
Consider B5, for which the “Emax (% I)” value in experiment [1] came to 1%. For the same molecule, the EC50 [nM] (cAMP) in experiment [2] turned out to be 0.3 nM.

B6: SEQ ID NO 38 (peptide)
peptide: IVLSLDVPIK[αMeL]K([γGlu-C16 diacid])KILLEQEKQKKQREQAETN[Aib]QILAQV-NH2
modifications: N-terminus assumed
SMILES: CC[C@H](C)[C@H](N)C(=O)N[C@H](C(=O)N[C@@H](CC(C)C)C(=O)N[C@@H](CO)C(=O)N[C@@H](CC(C)C)C(=O)N[C@@H](CC(=O)O)C(=O)N[C@H](C(=O)N1CCC[C@H]1C(=O)N[C@H](C(=O)N[C@@H](CCCCN)C(=O)N[C@@](C)(CC(C)C)C(=O)N[C@@H](CCCCNC(=O)CC[C@H](NC(=O)CCCCCCCCCCCCCCC(=O)O)C(=O)O)C(=O)N[C@@H](CCCCN)C(=O)N[C@H](C(=O)N[C@@H](CC(C)C)C(=O)N[C@@H](CC(C)C)C(=O)N[C@@H](CCC(=O)O)C(=O)N[C@@H](CCC(N)=O)C(=O)N[C@@H](CCC(=O)O)C(=O)N[C@@H](CCCCN)C(=O)N[C@@H](CCC(N)=O)C(=O)N[C@@H](CCCCN)C(=O)N[C@@H](CCCCN)C(=O)N[C@@H](CCC(N)=O)C(=O)N[C@@H](CCCNC(=N)N)C(=O)N[C@@H](CCC(=O)O)C(=O)N[C@@H](CCC(N)=O)C(=O)N[C@@H](C)C(=O)N[C@@H](CCC(=O)O)C(=O)N[C@H](C(=O)N[C@@H](CC(N)=O)C(=O)NC(C)(C)C(=O)N[C@@H](CCC(N)=O)C(=O)N[C@H](C(=O)N[C@@H](CC(C)C)C(=O)N[C@@H](C)C(=O)N[C@@H](CCC(N)=O)C(=O)N[C@H](C(N)=O)C(C)C)[C@@H](C)CC)[C@@H](C)O)[C@@H](C)CC)[C@@H](C)CC)C(C)C)C(C)C
As to B6, the “Emax (% I)” value in experiment [1] turned out to be 6%. Further, the EC50 [nM] (cAMP) in experiment [2] was determined as 0.49 nM.

B7: SEQ ID NO 20 (peptide)
peptide: Ac-IVLSLDVPIK[αMeL]K([γGlu-C16 diacid])Q[Aib]LLKQERQKKQREQAEKN[Aib]QILEQV-NH2
SMILES: CC[C@H](C)[C@H](NC(C)=O)C(=O)N[C@H](C(=O)N[C@@H](CC(C)C)C(=O)N[C@@H](CO)C(=O)N[C@@H](CC(C)C)C(=O)N[C@@H](CC(=O)O)C(=O)N[C@H](C(=O)N1CCC[C@H]1C(=O)N[C@H](C(=O)N[C@@H](CCCCN)C(=O)N[C@@](C)(CC(C)C)C(=O)N[C@@H](CCCCNC(=O)CC[C@H](NC(=O)CCCCCCCCCCCCCCC(=O)O)C(=O)O)C(=O)N[C@@H](CCC(N)=O)C(=O)NC(C)(C)C(=O)N[C@@H](CC(C)C)C(=O)N[C@@H](CC(C)C)C(=O)N[C@@H](CCCCN)C(=O)N[C@@H](CCC(N)=O)C(=O)N[C@@H](CCC(=O)O)C(=O)N[C@@H](CCCNC(=N)N)C(=O)N[C@@H](CCC(N)=O)C(=O)N[C@@H](CCCCN)C(=O)N[C@@H](CCCCN)C(=O)N[C@@H](CCC(N)=O)C(=O)N[C@@H](CCCNC(=N)N)C(=O)N[C@@H](CCC(=O)O)C(=O)N[C@@H](CCC(N)=O)C(=O)N[C@@H](C)C(=O)N[C@@H](CCC(=O)O)C(=O)N[C@@H](CCCCN)C(=O)N[C@@H](CC(N)=O)C(=O)NC(C)(C)C(=O)N[C@@H](CCC(N)=O)C(=O)N[C@H](C(=O)N[C@@H](CC(C)C)C(=O)N[C@@H](CCC(=O)O)C(=O)N[C@@H](CCC(N)=O)C(=O)N[C@H](C(N)=O)C(C)C)[C@@H](C)CC)[C@@H](C)CC)C(C)C)C(C)C
In the case of B7, the “Emax (% I)” value in experiment [1] is 3%. Moreover, in experiment [2], the EC50 [nM] (cAMP) is 1.09 nM.
